Data as given in the Human Domainome abundance scans (Beltran et al. 2025).
± gives the uncertainty stated by the source.

B1: Tyrosine-protein kinase Lck, residues 63 to 120; numbered along this chain, P06239 (parent)
chain: DNLVIALHSYEPSHDGDLGFEKGEQLRILEQSGEWWKAQSLTTGQEGFIPFNFVAKAN

Variants of: B1
Experiment: abundance fitness (aPCA) (normalised: wild type 0, dead -1); higher = more abundant; growth selection in yeast, the domain comes from the species named
Conditions: Homo sapiens
In the case of G16C, the abundance fitness is reported as -0.241 ± 0.097.
For G16K, the abundance fitness was -0.362 ± 0.13.
G16H gave an abundance fitness of -0.114 ± 0.12.
In the case of H8C, the abundance fitness is reported as -0.131 ± 0.11.
Variant H8S has an abundance fitness of -0.078 ± 0.091.
H8A showed an abundance fitness of -0.067 ± 0.12.
For H8V, the abundance fitness was -0.227 ± 0.085.
F48D gave an abundance fitness of -0.559 ± 0.14.
F48R showed an abundance fitness of 0.011 ± 0.062.
With F48P the abundance fitness was -0.52 ± 0.12.
I28N gave an abundance fitness of -0.585 ± 0.19.
For I28V, the abundance fitness was -0.108 ± 0.085.
I28F showed an abundance fitness of -0.977 ± 0.26.
I28G gave an abundance fitness of -0.754 ± 0.11.
Variant T43D has an abundance fitness of -0.446 ± 0.12.
Work on T43F yielded an abundance fitness of -0.957 ± 0.26.
For T43W, the abundance fitness was -1.1 ± 0.18.
P12N showed an abundance fitness of -0.557 ± 0.22.
In the case of E24D, the abundance fitness is reported as -0.095 ± 0.11.
With E24R the abundance fitness was -0.902 ± 0.12.
With E24W the abundance fitness was -0.704 ± 0.13.
For Q25K, the abundance fitness was 0.09 ± 0.12.
Q25P gave an abundance fitness of -0.276 ± 0.12.
With I49Q the abundance fitness was -0.796 ± 0.17.
Work on I49E yielded an abundance fitness of -0.996 ± 0.14.
For I49F, the abundance fitness was -0.427 ± 0.16.
With I49L the abundance fitness was -0.367 ± 0.079.
A38C gave an abundance fitness of -0.4 ± 0.12.
Work on A38K yielded an abundance fitness of -0.927 ± 0.27.
For A38Q, the abundance fitness was -0.891 ± 0.34.
With A38D the abundance fitness was -1.01 ± 0.31.
Variant N2H has an abundance fitness of 0.146 ± 0.21.
For N2M, the abundance fitness was -0.075 ± 0.12.
Work on L3V yielded an abundance fitness of -0.212 ± 0.089.
F51Q gave an abundance fitness of 0.021 ± 0.12.
F51Y gave an abundance fitness of -0.037 ± 0.14.
With F51E the abundance fitness was -0.022 ± 0.11.
In the case of E21L, the abundance fitness is reported as -0.11 ± 0.1.
E21W gave an abundance fitness of -0.481 ± 0.11.
With E21V the abundance fitness was 0.022 ± 0.081.
E21H showed an abundance fitness of -0.001 ± 0.3.
E21T showed an abundance fitness of -0.129 ± 0.13.
In the case of D1V, the abundance fitness is reported as -0.519 ± 0.13.
Work on D1L yielded an abundance fitness of -0.487 ± 0.31.
For D1M, the abundance fitness was -0.334 ± 0.29.
Variant A57Y has an abundance fitness of -0.176 ± 0.27.
Variant W35Y has an abundance fitness of -0.131 ± 0.2.
With W35H the abundance fitness was -0.081 ± 0.14.
In the case of W35L, the abundance fitness is reported as -0.029 ± 0.081.
For W35C, the abundance fitness was -0.185 ± 0.15.
For V54K, the abundance fitness was -1.05 ± 0.21.
Variant K22N has an abundance fitness of -0.777 ± 0.26.
N52Q gave an abundance fitness of -0.021 ± 0.12.
N52D showed an abundance fitness of 0.001 ± 0.14.
N52I showed an abundance fitness of -0.854 ± 0.22.
With S13A the abundance fitness was -0.177 ± 0.11.
In the case of S13Y, the abundance fitness is reported as -0.18 ± 0.11.
S13G gave an abundance fitness of -0.251 ± 0.07.
S13K gave an abundance fitness of 0.171 ± 0.11.
With E46H the abundance fitness was -0.448 ± 0.13.
Work on E46S yielded an abundance fitness of 0.021 ± 0.091.
In the case of E46W, the abundance fitness is reported as -0.517 ± 0.1.
Work on E46A yielded an abundance fitness of -0.024 ± 0.089.
With E46Q the abundance fitness was -0.038 ± 0.11.
With E46G the abundance fitness was -0.632 ± 0.076.
Variant G33S has an abundance fitness of -0.166 ± 0.097.
Work on G33A yielded an abundance fitness of -0.398 ± 0.09.
In the case of L41D, the abundance fitness is reported as -0.666 ± 0.2.
L41Y gave an abundance fitness of -0.65 ± 0.16.
Work on Q31K yielded an abundance fitness of 0.003 ± 0.17.
With Q31W the abundance fitness was -0.161 ± 0.11.
Variant Q31C has an abundance fitness of -0.097 ± 0.15.
Variant Q31F has an abundance fitness of -0.5 ± 0.15.
For S40W, the abundance fitness was -0.989 ± 0.15.
Variant S40Q has an abundance fitness of -0.622 ± 0.18.
Work on S40I yielded an abundance fitness of -0.687 ± 0.21.
With Y10P the abundance fitness was -0.673 ± 0.14.
Variant Y10D has an abundance fitness of -0.511 ± 0.14.
In the case of Y10W, the abundance fitness is reported as -0.019 ± 0.09.
Y10I showed an abundance fitness of -0.619 ± 0.24.
In the case of Y10A, the abundance fitness is reported as -0.671 ± 0.12.
Work on Y10H yielded an abundance fitness of -0.087 ± 0.16.
For G47M, the abundance fitness was -0.884 ± 0.17.
In the case of G47S, the abundance fitness is reported as -0.931 ± 0.12.
D17G gave an abundance fitness of -0.042 ± 0.067.
In the case of D17E, the abundance fitness is reported as 0.063 ± 0.091.
For D17R, the abundance fitness was -0.009 ± 0.066.
Work on D17P yielded an abundance fitness of -0.762 ± 0.15.
Work on D17M yielded an abundance fitness of -0.022 ± 0.12.
K56L gave an abundance fitness of -0.217 ± 0.078.
Work on L18W yielded an abundance fitness of -0.978 ± 0.25.
Variant Q45A has an abundance fitness of -0.087 ± 0.09.
In the case of Q45E, the abundance fitness is reported as 0.001 ± 0.1.
Variant P50N has an abundance fitness of -0.652 ± 0.18.
P50K gave an abundance fitness of -0.719 ± 0.15.
In the case of P50Y, the abundance fitness is reported as -1.08 ± 0.34.
In the case of Q39N, the abundance fitness is reported as -0.868 ± 0.3.
Q39G showed an abundance fitness of -0.722 ± 0.095.
Variant Q39L has an abundance fitness of -0.312 ± 0.083.
In the case of Q39Y, the abundance fitness is reported as -0.468 ± 0.14.
F53A gave an abundance fitness of -0.013 ± 0.07.
For F53C, the abundance fitness was -0.157 ± 0.096.
For R27V, the abundance fitness was -0.062 ± 0.089.
Work on R27L yielded an abundance fitness of -0.056 ± 0.088.
With K37M the abundance fitness was -0.307 ± 0.12.
K37N gave an abundance fitness of -0.548 ± 0.17.
With K37I the abundance fitness was -0.151 ± 0.12.
Work on K37T yielded an abundance fitness of -0.267 ± 0.1.
Work on E34N yielded an abundance fitness of -0.203 ± 0.16.
Work on E34A yielded an abundance fitness of -0.065 ± 0.13.
Work on T42I yielded an abundance fitness of -0.049 ± 0.083.
With T42N the abundance fitness was 0.034 ± 0.14.
Work on F20Y yielded an abundance fitness of -0.756 ± 0.37.
Variant F20C has an abundance fitness of -0.541 ± 0.14.
For F20N, the abundance fitness was -0.7 ± 0.33.
F20T gave an abundance fitness of -0.406 ± 0.16.
In the case of F20D, the abundance fitness is reported as -0.845 ± 0.2.
W36M gave an abundance fitness of -0.075 ± 0.11.
Variant W36Y has an abundance fitness of -0.074 ± 0.16.
Work on W36P yielded an abundance fitness of -0.298 ± 0.1.
W36T gave an abundance fitness of -0.029 ± 0.15.
With D15W the abundance fitness was -0.461 ± 0.11.
Variant D15G has an abundance fitness of -0.196 ± 0.095.
With D15H the abundance fitness was -0.071 ± 0.13.
Variant S32D has an abundance fitness of -0.07 ± 0.1.
Variant S32I has an abundance fitness of -0.226 ± 0.11.
Variant S32H has an abundance fitness of -0.302 ± 0.18.
Variant S32L has an abundance fitness of -0.377 ± 0.088.
Variant S32R has an abundance fitness of 0.012 ± 0.081.
With S32A the abundance fitness was -0.067 ± 0.091.
Variant G19H has an abundance fitness of -0.299 ± 0.13.
G19A showed an abundance fitness of -0.039 ± 0.085.
In the case of G19F, the abundance fitness is reported as -0.567 ± 0.2.
G19K gave an abundance fitness of -0.108 ± 0.14.
With L29P the abundance fitness was -1.05 ± 0.2.
For G44A, the abundance fitness was -0.264 ± 0.09.
G44I showed an abundance fitness of -0.591 ± 0.24.
Work on G44H yielded an abundance fitness of -0.321 ± 0.13.
For G44N, the abundance fitness was -0.193 ± 0.15.
In the case of G44T, the abundance fitness is reported as -0.557 ± 0.17.
Variant G23P has an abundance fitness of -1.01 ± 0.29.
Work on E11T yielded an abundance fitness of 0.064 ± 0.12.
For E11A, the abundance fitness was -0.137 ± 0.085.
In the case of E11V, the abundance fitness is reported as -0.05 ± 0.08.
E11F showed an abundance fitness of -0.214 ± 0.18.
With H14C the abundance fitness was -0.033 ± 0.12.
L26K showed an abundance fitness of -0.919 ± 0.3.
L26G gave an abundance fitness of -0.704 ± 0.091.
In the case of I5M, the abundance fitness is reported as -0.26 ± 0.15.
With A55H the abundance fitness was -0.27 ± 0.12.
With A55D the abundance fitness was -0.102 ± 0.11.
Variant A55T has an abundance fitness of -0.013 ± 0.1.
In the case of A55L, the abundance fitness is reported as -0.4 ± 0.1.
A55K gave an abundance fitness of -0.154 ± 0.13.
A55Q gave an abundance fitness of 0.04 ± 0.14.
Variant S9I has an abundance fitness of -0.888 ± 0.2.
S9Y showed an abundance fitness of -0.619 ± 0.16.
In the case of S9M, the abundance fitness is reported as -0.473 ± 0.13.
Variant S9P has an abundance fitness of -0.166 ± 0.12.
In the case of L7M, the abundance fitness is reported as -0.097 ± 0.11.
L7C showed an abundance fitness of -0.357 ± 0.11.
With L7N the abundance fitness was -0.602 ± 0.3.
For V4T, the abundance fitness was -0.325 ± 0.28.
Work on A6K yielded an abundance fitness of -0.933 ± 0.28.
For A6D, the abundance fitness was -0.907 ± 0.38.
For E30P, the abundance fitness was -0.752 ± 0.24.
In the case of E30A, the abundance fitness is reported as -0.115 ± 0.087.
